Measured values reported in publication PMC9482650, “Quantitative fragmentomics allow affinity mapping of interactomes” (Nature Communications, 2022).

Each binder was assayed against T1, APBA2_1, Q99767 (assay: holdup assay). Conditions: plain residues with an end cap or a label only (N-terminal biotin on a linker: ado-ado).
T1 sequence (Q99767 563-664, limits assumed, looked up): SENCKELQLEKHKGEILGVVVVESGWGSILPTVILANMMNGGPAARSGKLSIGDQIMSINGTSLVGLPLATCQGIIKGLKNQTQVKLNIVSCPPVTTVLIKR
Set-up: key: below the threshold = too weak to quantify, mostly under pKd 3.1 to 4

Binder	pKd
PELESKESVL [SLC1A4, P43007]	below the threshold
RQSILFSTEV [BCR, P11274]	below the threshold

The binders below were run against PARD3_3, Q8TEW0 (assay: holdup assay). Conditions: plain residues with an end cap or a label only (N-terminal biotin on a linker: ado-ado).
PARD3_3, Q8TEW0, sequence (Q8TEW0 582-685): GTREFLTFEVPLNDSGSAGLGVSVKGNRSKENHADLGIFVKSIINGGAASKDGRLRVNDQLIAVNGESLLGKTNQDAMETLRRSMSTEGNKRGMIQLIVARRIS
Set-up: key: below the threshold = too weak to quantify, mostly under pKd 3.1 to 4

Binder	pKd
PELESKESVL [SLC1A4, P43007]	3.87
RQSILFSTEV [BCR, P11274]	below the threshold

Each binder was assayed against DLG1_3, Q12959 (assay: holdup assay). Conditions: plain residues with an end cap or a label only (N-terminal biotin on a linker: ado-ado).
DLG1_3, Q12959, sequence (Q12959 457-571): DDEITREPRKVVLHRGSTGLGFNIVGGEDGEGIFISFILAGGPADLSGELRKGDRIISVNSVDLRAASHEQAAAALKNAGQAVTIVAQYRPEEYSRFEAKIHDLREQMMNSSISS
Set-up: key: below the threshold = too weak to quantify, mostly under pKd 3.1 to 4

Binder	pKd
PELESKESVL [SLC1A4, P43007]	below the threshold
RQSILFSTEV [BCR, P11274]	4.06

Each binder was assayed against MAGI1_1, Q96QZ7 (assay: holdup assay). Conditions: plain residues with an end cap or a label only (N-terminal biotin on a linker: ado-ado).
MAGI1_1, Q96QZ7, sequence (Q96QZ7 1-106): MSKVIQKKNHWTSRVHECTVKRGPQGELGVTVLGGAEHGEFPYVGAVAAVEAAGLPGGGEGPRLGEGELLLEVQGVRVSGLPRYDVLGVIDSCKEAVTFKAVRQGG
Set-up: key: below the threshold = too weak to quantify, mostly under pKd 3.1 to 4

Binder	pKd
PELESKESVL [SLC1A4, P43007]	below the threshold
RQSILFSTEV [BCR, P11274]	below the threshold

Each binder was assayed against T2, MPDZ_5, O75970 (assay: holdup assay). Conditions: plain residues with an end cap or a label only (N-terminal biotin on a linker: ado-ado).
T2 sequence (O75970 695-796, limits assumed, looked up): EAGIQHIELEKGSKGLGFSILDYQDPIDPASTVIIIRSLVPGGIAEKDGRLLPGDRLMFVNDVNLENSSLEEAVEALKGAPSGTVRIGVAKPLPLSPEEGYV
Set-up: key: below the threshold = too weak to quantify, mostly under pKd 3.1 to 4

Binder	pKd
PELESKESVL [SLC1A4, P43007]	below the threshold
RQSILFSTEV [BCR, P11274]	below the threshold

Each binder was assayed against GORASP1, Q9BQQ3 (assay: holdup assay). Conditions: plain residues with an end cap or a label only (N-terminal biotin on a linker: ado-ado).
GORASP1, Q9BQQ3, sequence (Q9BQQ3 1-208): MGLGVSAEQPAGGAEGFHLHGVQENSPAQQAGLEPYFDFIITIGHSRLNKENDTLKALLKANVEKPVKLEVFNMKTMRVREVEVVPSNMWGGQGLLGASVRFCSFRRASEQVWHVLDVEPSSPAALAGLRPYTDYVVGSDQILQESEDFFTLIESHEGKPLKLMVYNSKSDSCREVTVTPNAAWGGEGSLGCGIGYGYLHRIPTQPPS
Set-up: key: below the threshold = too weak to quantify, mostly under pKd 3.1 to 4

Binder	pKd
PELESKESVL [SLC1A4, P43007]	below the threshold
RQSILFSTEV [BCR, P11274]	below the threshold

What follows are binders tested against GOPC, Q9HD26 (assay: holdup assay). Conditions: plain residues with an end cap or a label only (N-terminal biotin on a linker: ado-ado).
Set-up: key: below the threshold = too weak to quantify, mostly under pKd 3.1 to 4

Binder	pKd
PELESKESVL [SLC1A4, P43007]	3.74
RQSILFSTEV [BCR, P11274]	4.5

These binders were tested against T3, GRIP1_2, Q9Y3R0 (assay: holdup assay). Conditions: plain residues with an end cap or a label only (N-terminal biotin on a linker: ado-ado).
T3 sequence (Q9Y3R0 145-248, limits assumed, looked up): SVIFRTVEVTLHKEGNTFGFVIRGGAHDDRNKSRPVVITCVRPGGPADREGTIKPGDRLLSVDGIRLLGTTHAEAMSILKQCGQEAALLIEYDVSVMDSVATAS
Set-up: key: below the threshold = too weak to quantify, mostly under pKd 3.1 to 4

Binder	pKd
PELESKESVL [SLC1A4, P43007]	below the threshold
RQSILFSTEV [BCR, P11274]	below the threshold

The binders below were run against GRIP2_6, Q9C0E4 (assay: holdup assay). Conditions: plain residues with an end cap or a label only (N-terminal biotin on a linker: ado-ado).
GRIP2_6, Q9C0E4, sequence (Q9C0E4 648-740): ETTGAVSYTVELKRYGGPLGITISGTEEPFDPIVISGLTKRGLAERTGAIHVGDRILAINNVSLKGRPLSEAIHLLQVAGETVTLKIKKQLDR
Set-up: key: below the threshold = too weak to quantify, mostly under pKd 3.1 to 4

Binder	pKd
PELESKESVL [SLC1A4, P43007]	below the threshold
RQSILFSTEV [BCR, P11274]	4.47

The binders below were run against T4, SNTB1, Q13884 (assay: holdup assay). Conditions: plain residues with an end cap or a label only (N-terminal biotin on a linker: ado-ado).
T4 sequence (Q13884 107-205, limits assumed, looked up): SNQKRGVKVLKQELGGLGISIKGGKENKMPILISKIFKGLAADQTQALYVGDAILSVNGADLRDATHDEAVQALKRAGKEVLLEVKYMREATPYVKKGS
Set-up: key: below the threshold = too weak to quantify, mostly under pKd 3.1 to 4

Binder	pKd
PELESKESVL [SLC1A4, P43007]	4.8
RQSILFSTEV [BCR, P11274]	4.46

The binders below were run against Inadl_9, Q8NI35 (assay: holdup assay). Conditions: plain residues with an end cap or a label only (N-terminal biotin on a linker: ado-ado).
Inadl_9, Q8NI35, sequence (Q8NI35 1530-1615): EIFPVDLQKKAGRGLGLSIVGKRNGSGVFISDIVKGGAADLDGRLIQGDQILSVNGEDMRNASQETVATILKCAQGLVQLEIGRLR
Set-up: key: below the threshold = too weak to quantify, mostly under pKd 3.1 to 4

Binder	pKd
PELESKESVL [SLC1A4, P43007]	below the threshold
RQSILFSTEV [BCR, P11274]	4.09

Each binder was assayed against T5, GRIP1_5, Q9Y3R0 (assay: holdup assay). Conditions: plain residues with an end cap or a label only (N-terminal biotin on a linker: ado-ado).
T5 sequence (Q9Y3R0 568-668, limits assumed, looked up): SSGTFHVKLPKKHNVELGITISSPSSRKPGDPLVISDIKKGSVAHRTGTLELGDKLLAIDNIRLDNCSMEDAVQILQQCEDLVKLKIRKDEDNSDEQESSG
Set-up: key: below the threshold = too weak to quantify, mostly under pKd 3.1 to 4

Binder	pKd
PELESKESVL [SLC1A4, P43007]	below the threshold
RQSILFSTEV [BCR, P11274]	below the threshold

These binders were tested against T6, APBA3_1, O96018 (assay: holdup assay). Conditions: plain residues with an end cap or a label only (N-terminal biotin on a linker: ado-ado).
T6 sequence (O96018 389-490, limits assumed, looked up): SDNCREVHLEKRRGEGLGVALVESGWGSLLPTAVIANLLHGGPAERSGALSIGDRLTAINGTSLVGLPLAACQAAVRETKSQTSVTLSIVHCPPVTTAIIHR
Set-up: key: below the threshold = too weak to quantify, mostly under pKd 3.1 to 4

Binder	pKd
PELESKESVL [SLC1A4, P43007]	below the threshold
RQSILFSTEV [BCR, P11274]	below the threshold

Each binder was assayed against Inadl_8, Q8NI35 (assay: holdup assay). Conditions: plain residues with an end cap or a label only (N-terminal biotin on a linker: ado-ado).
Inadl_8, Q8NI35, sequence (Q8NI35 1425-1530): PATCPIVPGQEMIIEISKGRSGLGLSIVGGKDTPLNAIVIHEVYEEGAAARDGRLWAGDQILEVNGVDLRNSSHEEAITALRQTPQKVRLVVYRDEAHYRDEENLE
Set-up: key: below the threshold = too weak to quantify, mostly under pKd 3.1 to 4

Binder	pKd
PELESKESVL [SLC1A4, P43007]	below the threshold
RQSILFSTEV [BCR, P11274]	4.49

Each binder was assayed against DLG2_3, Q15700 (assay: holdup assay). Conditions: plain residues with an end cap or a label only (N-terminal biotin on a linker: ado-ado).
Set-up: key: below the threshold = too weak to quantify, mostly under pKd 3.1 to 4

Binder	pKd
PELESKESVL [SLC1A4, P43007]	below the threshold
RQSILFSTEV [BCR, P11274]	4

These binders were tested against T7, SNTG2, Q9NY99 (assay: holdup assay). Conditions: plain residues with an end cap or a label only (N-terminal biotin on a linker: ado-ado).
T7 sequence (Q9NY99 68-166, limits assumed, looked up): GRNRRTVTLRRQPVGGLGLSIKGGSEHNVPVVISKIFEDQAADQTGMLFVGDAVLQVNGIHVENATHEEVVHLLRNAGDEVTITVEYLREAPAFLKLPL
Set-up: key: below the threshold = too weak to quantify, mostly under pKd 3.1 to 4

Binder	pKd
PELESKESVL [SLC1A4, P43007]	4.09
RQSILFSTEV [BCR, P11274]	4.1

Each binder was assayed against AHNAK1, Q09666 (assay: holdup assay). Conditions: plain residues with an end cap or a label only (N-terminal biotin on a linker: ado-ado).
AHNAK1, Q09666, sequence (Q09666 4-100): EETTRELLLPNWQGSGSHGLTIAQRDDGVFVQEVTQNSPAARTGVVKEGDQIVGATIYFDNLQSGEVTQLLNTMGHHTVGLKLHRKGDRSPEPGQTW
Set-up: key: below the threshold = too weak to quantify, mostly under pKd 3.1 to 4

Binder	pKd
PELESKESVL [SLC1A4, P43007]	below the threshold
RQSILFSTEV [BCR, P11274]	below the threshold

What follows are binders tested against GRIP2_7, Q9C0E4 (assay: holdup assay). Conditions: plain residues with an end cap or a label only (N-terminal biotin on a linker: ado-ado).
GRIP2_7, Q9C0E4, sequence (Q9C0E4 934-1023): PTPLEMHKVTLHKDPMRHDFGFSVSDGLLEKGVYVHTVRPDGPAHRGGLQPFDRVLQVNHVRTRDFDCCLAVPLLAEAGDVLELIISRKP
Set-up: key: below the threshold = too weak to quantify, mostly under pKd 3.1 to 4

Binder	pKd
PELESKESVL [SLC1A4, P43007]	below the threshold
RQSILFSTEV [BCR, P11274]	3.66

These binders were tested against T8, NHERF3_1, Q5T2W1 (assay: holdup assay). Conditions: plain residues with an end cap or a label only (N-terminal biotin on a linker: ado-ado).
T8 sequence (Q5T2W1 4-100, limits assumed, looked up): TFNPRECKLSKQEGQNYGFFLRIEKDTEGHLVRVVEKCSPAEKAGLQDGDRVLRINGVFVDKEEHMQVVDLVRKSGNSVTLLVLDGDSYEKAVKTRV
Set-up: key: below the threshold = too weak to quantify, mostly under pKd 3.1 to 4

Binder	pKd
PELESKESVL [SLC1A4, P43007]	4.51
RQSILFSTEV [BCR, P11274]	5.78

The binders below were run against T9, TJP3_3, O95049 (assay: holdup assay). Conditions: plain residues with an end cap or a label only (N-terminal biotin on a linker: ado-ado).
T9 sequence (O95049 375-456, limits assumed, looked up): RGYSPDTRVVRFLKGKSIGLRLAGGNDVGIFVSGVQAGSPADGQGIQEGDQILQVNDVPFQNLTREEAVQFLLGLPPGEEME
Set-up: key: below the threshold = too weak to quantify, mostly under pKd 3.1 to 4

Binder	pKd
PELESKESVL [SLC1A4, P43007]	below the threshold
RQSILFSTEV [BCR, P11274]	below the threshold

The binders below were run against T10, SHANK1, Q9Y566 (assay: holdup assay). Conditions: plain residues with an end cap or a label only (N-terminal biotin on a linker: ado-ado).
T10 sequence (Q9Y566 658-767, limits assumed, looked up): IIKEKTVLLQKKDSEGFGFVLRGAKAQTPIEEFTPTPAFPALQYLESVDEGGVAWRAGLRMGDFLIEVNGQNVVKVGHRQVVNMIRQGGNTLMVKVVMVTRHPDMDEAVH
Set-up: key: below the threshold = too weak to quantify, mostly under pKd 3.1 to 4

Binder	pKd
PELESKESVL [SLC1A4, P43007]	below the threshold
RQSILFSTEV [BCR, P11274]	4.58

Each binder was assayed against T11, APBA1_1, Q02410 (assay: holdup assay). Conditions: plain residues with an end cap or a label only (N-terminal biotin on a linker: ado-ado).
T11 sequence (Q02410 651-752, limits assumed, looked up): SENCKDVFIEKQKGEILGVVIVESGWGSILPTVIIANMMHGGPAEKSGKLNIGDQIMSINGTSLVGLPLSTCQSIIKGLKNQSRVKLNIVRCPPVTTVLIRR
Set-up: key: below the threshold = too weak to quantify, mostly under pKd 3.1 to 4

Binder	pKd
PELESKESVL [SLC1A4, P43007]	below the threshold
RQSILFSTEV [BCR, P11274]	below the threshold

Each binder was assayed against T12, SNTG1, Q9NSN8 (assay: holdup assay). Conditions: plain residues with an end cap or a label only (N-terminal biotin on a linker: ado-ado).
T12 sequence (Q9NSN8 52-150, limits assumed, looked up): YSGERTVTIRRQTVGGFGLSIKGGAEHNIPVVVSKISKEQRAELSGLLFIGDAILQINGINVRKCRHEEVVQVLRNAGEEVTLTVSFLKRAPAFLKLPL
Set-up: key: below the threshold = too weak to quantify, mostly under pKd 3.1 to 4

Binder	pKd
PELESKESVL [SLC1A4, P43007]	3.68
RQSILFSTEV [BCR, P11274]	4.67

Each binder was assayed against GRID2IP_2, A4D2P6 (assay: holdup assay). Conditions: plain residues with an end cap or a label only (N-terminal biotin on a linker: ado-ado).
GRID2IP_2, A4D2P6, sequence (A4D2P6 272-370): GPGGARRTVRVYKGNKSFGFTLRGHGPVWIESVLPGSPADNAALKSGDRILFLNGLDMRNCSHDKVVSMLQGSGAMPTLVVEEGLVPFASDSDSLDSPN
Set-up: key: below the threshold = too weak to quantify, mostly under pKd 3.1 to 4

Binder	pKd
PELESKESVL [SLC1A4, P43007]	3.91
RQSILFSTEV [BCR, P11274]	4.3
